Data reported in patent US20090208486A1.

B1: recombinant CXCL11 (Peprotech, Inc.) (ligand, UniProt O14625 22-94, looked up, species assumed)
C-X-C motif chemokine 11: FPMFKRGRCLCIGPGVKAVKVADIEKASIMYPSNNCDKIEVIITLKENKGQRCLNPKSKQARLIIKKVERKNF
B2: recombinant CXCL9 (Peprotech, Inc.) (ligand, UniProt P18340 22-126, looked up, species assumed)
C-X-C motif chemokine 9: TLVIRNARCSCISTSRGTIHYKSLKDLKQFAPSPNCNKTEIIATLKNGDQTCLDPDSANVKKLMKEWEKKISQKKKQKRGKKHQKNMKNRKPKTPQSRRRSRKTT

Target: T1, mouse CXCR3 (mouse) (UniProt O88410)
T1 sequence (looked up): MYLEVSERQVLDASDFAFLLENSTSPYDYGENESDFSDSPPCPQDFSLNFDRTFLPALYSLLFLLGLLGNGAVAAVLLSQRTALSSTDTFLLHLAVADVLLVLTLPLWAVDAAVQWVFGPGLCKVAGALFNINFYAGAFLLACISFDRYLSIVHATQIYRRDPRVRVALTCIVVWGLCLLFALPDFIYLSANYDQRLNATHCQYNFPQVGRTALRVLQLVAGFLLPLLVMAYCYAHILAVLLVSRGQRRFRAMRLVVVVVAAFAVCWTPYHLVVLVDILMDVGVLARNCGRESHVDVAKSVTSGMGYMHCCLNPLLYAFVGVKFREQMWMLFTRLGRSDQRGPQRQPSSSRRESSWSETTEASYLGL
Assay: cell-based or functional assay

Row | Molecule | chemokine concentration at which chemotaxis/chemoinvasion responses of B16F10 cells were obtained [ng/mL] | diffusely-stained B16F10 cell population 5 min after CXCL9 (100 ng/ml), phalloidin staining [%] | increase in intracellular Ca2+ concentration after CXCL9 (300 ng/ml) in CXCR3 antisense-transfectant B16F10 clones (CXCR3 protein reduced to about 20-25%) [%] | increase in intracellular Ca2+ concentration of B16F10 cells after CXCL9 (300 ng/ml), Fluo-3 AM [%] | proportion of actin filament polarized B16F10 cells 5 min after CXCL9 (100 ng/ml), phalloidin staining [%]
1 | recombinant CXCL10 (Peprotech, Inc.) (ligand) | 50 to 100 | – | – | – | –
2 | B1 | 50 to 100 | – | – | – | –
3 | B2 | 50 to 100 | 22.8 | 5 | 15 to 20 | 38.4
